Tested on: murine SOD1 mRNA
Assay: CNS knock-down of SOD1 mRNA after systemic (SC or IV) administration (RT-qPCR)
Type: in vivo, C57Bl/6 mice
Details: SC QDx4 at 15 mg/kg (siRNA molar equivalent), one week after last dose
Description: VHH-siSOD1m-5'VP conjugates or heterodimeric VHH-hFc-siSOD1m-5'VP conjugates were generated and compared for their potential to trigger BBB-crossing and functional delivery in CNS tissues following systemic administration. Wild-type C57Bl/6 mice (4-8 per group) were administered with either four daily SC doses (QDx4) of unconjugated siSOD1m-5'VP or the C5-siSOD1m-5'VP conjugate at 15 mg/kg (siRNA molar equivalent), or three IV doses of the C5-hFc-siSOD1m-5'VP conjugate every two days (Q2Dx3) at 1.5 mg/kg (siRNA molar equivalent), compared to PBS injected mice. […] RNA samples were analyzed and dosed using a Fragment Analyzer RNA kit in a Fragment Analyzer system (Agilent). Relative RNA expression levels were quantified by RT-qPCR using the TaqMan™ Fast Universal PCR Master Mix (2X) no AmpErase™ LTNG kit (Applied Biosystems) and commercially available TaqMan™ probes for the target murine SOD1 and reference RpL13 and PUM1 genes (Applied Biosystems). Expression data were analyzed using the […]Cq method normalized to the expression of the reference RpL13 gene, for brain regions, or RpL13 and PUM1 genes for total brain, spinal cord, liver, kidney (multiplex qPCR), based on raw quantification cycle (Cq) values (Bustin et al.). The results are expressed as means ± standard error of the mean (SEM) and are presented as mRNA levels relative to the control animals injected with PBS. […]

B1: C5-siSOD1m-5'VP: TfR-binding VHH-siRNA conjugate wherein VHH is C5 (conjugate)
VHH: EVQLVESGGGVVQPGGSLKLSCVASGTDFSINFIRWYRQAPGKQREFVAGFTATGNTNYADSMKGRFTISRDNTKNAVYLQIDSLKPEDTAVYYCYMLDKWGQGTQVTVSSAAAEQKLISEEDLNGAAHHHHHHGS
- SOD1 mRNA KD in total brain and spinal cord: 30-40%

— patent EP4480965A1, “TRANSFERRIN RECEPTOR-BINDING MOLECULES, CONJUGATES THEREOF AND THEIR USES TO PREVENT OR TREAT CNS DISEASES” (Vect-Horus, priority 2023, dated 2024)
